Tested on: guinea pigs
Experiment: Systematically allergic reaction in guinea pigs (Example 23)
Format: in vivo, guinea pig
Conditions: albumin 240 mg/kg via toe vein
Source text: 44 male healthy guinea pigs were provided, and the body weight of each guinea pig was about 300 g.

B1: chicken ovalbumin (protein, UniProt P01012 2-386, looked up)
Ovalbumin: GSIGAASMEFCFDVFKELKVHHANENIFYCPIAIMSALAMVYLGAKDSTRTQINKVVRFDKLPGFGDSIEAQCGTSVNVHSSLRDILNQITKPNDVYSFSLASRLYAEERYPILPEYLQCVKELYRGGLEPINFQTAADQARELINSWVESQTNGIIRNVLQPSSVDSQTAMVLVNAIVFKGLWEKAFKDEDTQAMPFRVTEQESKPVQMMYQIGLFRVASMASEKMKILELPFASGTMSMLVLLPDEVSGLEQLESIINFEKLTEWTSSNVMEERKIKVYLPRMKMEEKYNLTSVLMAMGITDVFSSSANLSGISSAESLKISQAVHAAHAEINEAGREVVGSAEAGVDAASVSEEFRADHPFLFCIKHIATNAVLFFGRCVSP
notes: chicken ovalbumin, albumin group in the guinea pig allergy test
For B1, the “time to death after stimulation” value was less than 2 min.

From patent US8575097B2, “Exendin variant and conjugate thereof” (Pegbio Co., Ltd., priority 2009, dated 2013)
